Measured values: patent US20190002500A1, “NOVEL a4B7 PEPTIDE DIMER ANTAGONISTS” (Protagonist Therapeutics, Inc., priority 2013, published 2019)
Where a SMILES comes first, the peptide text is derived from it. Bridges are numbered along the chain shown (N, C = ends). Where no end group is shown, it is not given here. [ ]: non-standard residue; d: D form. NMeR = CN[C@@H](CCCNC(=N)N)C(=O)O; Pen = CC(C)(S)[C@H](N)C(=O)O

What was measured:
[1] = FIG. 3
Text: Table printed on a drawing sheet, FIG. 3
First reader's note: The sequence is split into one residue per column (positions 4-11 plus one unnumbered column), and SEQ ID 39 is printed twice.

[2] = Simulated Intestinal Fluid (SIF) Stability Assay; assay type: in vitro ADME; conditions: for stability in simulated intestinal fluids (SIF): substitution of Cys with Pen, compared to SEQ ID NO: 46 with Cys
Experimental: Simulated Intestinal Fluid (SIF) Stability Assay
Studies were carried out in simulated intestinal fluid (SIF) to evaluate gastric stability of the dimer molecules of the instant invention. SIF was prepared by adding 6.8 g of monobasic potassium phosphate and 10.0 g of pancreatin to 1.0 L of water. After dissolution, the pH was adjusted to 6.8 using NaOH. DMSO stocks (2 mM) were first prepared for the test compounds. Aliquots of the DMSO solutions were dosed into 6 individual tubes, each containing 0.5 mL of SIF, which had been pre-warmed to 37° C.
The final test compound concentration was 20 μM. The vials were kept in a benchtop Thermomixer® for the duration of the experiment. At each timepoint (0, 5, 10, 20, 40, and 60 minutes), 1.0 mL of acetonitrile containing 1% formic acid was added to one vial to terminate the reaction. Samples were stored at 4° C. until the end of the experiment. After the final timepoint was sampled, the tubes were mixed and then centrifuged at 3,000 rpm for 10 minutes. Aliquots of the supernatant were removed, diluted 1:1 into distilled water containing internal standard, and analyzed by LCMS/MS. Percent remaining at each timepoint was calculated based on the peak area response ratio of test to compound to internal standard. Time 0 was set to 100%, and all later timepoints were calculated relative to time 0. Half-lives were calculated by fitting to a first-order exponential decay equation using Graphpad. A small sampling of the results of these studies is provided and discussed in connection FIG. 3, above.

Compound	SIF Stability (Half-Life, Min) [1] [min]	stability in simulated intestinal fluids (SIF) [2]	also measured
CC(=O)N[C@H]1CSSC[C@@H](C(N)=O)NC(=O)[C@H](CC(C)C)NC(=O)[C@H]([C@@H](C)O)NC(=O)[C@H](CC(=O)O)NC(=O)[C@H](CO)NC(=O)[C@H](CCCNC(=N)N)NC1=O [compound 39, Ac-C R S D T L C-NH2] (Ac-CRSDTLC-NH2; disulfide 1-7)	<1	–	–
SEQ ID NO: 46: integrin antagonist homodimer of monomer subunit SEQ ID NO: 46 (Cys, N-terminally dimerized); N(alpha)Methylated and non-methylated variations (CRSDTLC; disulfide 1-7; not fully specified (residue 2); also: homodimer linked at N-termini) [listing 1 of 2 here]	73	–	–
SEQ ID NO: 46: integrin antagonist homodimer of monomer subunit SEQ ID NO: 46 (Cys, N-terminally dimerized); N(alpha)Methylated and non-methylated variations (CRSDTLC; disulfide 1-7; not fully specified (residue 2); also: homodimer linked at N-termini) [listing 2 of 2 here]	–	–	half-life in SIF ([2]; substitution of arginine with N-Me-Arg, N(alpha)Methylated vs non-methylated variation): increased half-life substantially
SEQ ID NO: 55: integrin antagonist homodimer of monomer subunit SEQ ID NO: 55, Cys substituted with Penicillamine (Pen) (C[NMeR]SDTL[Pen][dK]; disulfide 1-7; also: homodimer, link not given here)	–	increased stability significantly	–
SEQ ID NO: 74: integrin antagonist homodimer of monomer subunit SEQ ID NO: 74, Cys substituted with Penicillamine (Pen) (C[NMeR]SDTL[Pen]E[dK]; disulfide 1-7; also: homodimer, link not given here)	–	increased stability significantly	–
